Results published in paper PMC6202814.

Experiments:
[1] = substrate: O=C(CO)CO; test: purified protein; details: acceptor varied 2-80 mM, donor DHAP 60 mM, 50 mM TEA pH 7.5, 25 °C, apparent
[2] = substrate: O=C[C@@H](O)CO; test: purified protein; details: donor DHAP 60 mM, 50 mM TEA pH 7.5, 25 °C, apparent

Protein | Km [1] [mM] | Vmax [1] [µmol/min/mg] | kcat [1] [s⁻¹] | kcat/Km [1] [M⁻¹ s⁻¹] | Km ([2]; acceptor varied 0.2-60 mM) [mM] | Vmax ([2]; acceptor varied 0.2-60 mM) [µmol/min/mg] | kcat ([2]; acceptor varied 0.2-60 mM) [s⁻¹] | kcat/Km ([2]; acceptor varied 0.2-60 mM) [M⁻¹ s⁻¹] | Km ([2]; acceptor varied 0.5-60 mM) [mM] | Vmax ([2]; acceptor varied 0.5-60 mM) [µmol/min/mg] | kcat ([2]; acceptor varied 0.5-60 mM) [s⁻¹] | kcat/Km ([2]; acceptor varied 0.5-60 mM) [M⁻¹ s⁻¹]
L-rhamnulose-1-phosphate aldolase (RhaD) (Escherichia coli K-12) (protein) MQNITQSWFVQGMIKATTDAWLKGWDERNGGNLTLRLDDADIAPYHDNFHQQPRYIPLSQPMPLLANTPFIVTGSGKFFRNVQLDPAANLGIVKVDSDGAGYHILWGLTNEAVPTSELPAHFLSHCERIKATNGKDRVIMHCHATNLIALTYVLENDTAVFTRQLWEGSTECLVVFPDGVGILPWMVPGTDEIGQATAQEMQKHSLVLWPFHGVFGSGPTLDETFGLIDTAEKSAQVLVKVYSMGGMKQTISREELIALGKRFGVTPLASALAL | 23.4 ± 9.69 | 0.86 | 4.1 | 180 | 40.8 ± 5.8 | 4.3 | 20.5 | 500 |  |  |  | 
L-fuculose-1-phosphate aldolase (FucA) (Escherichia coli K-12) (protein) MERNKLARQIIDTCLEMTRLGLNQGTAGNVSVRYQDGMLITPTGIPYEKLTESHIVFIDGNGKHEEGKLPSSEWRFHMAAYQSRPDANAVVHNHAVHCTAVSILNRSIPAIHYMIAAAGGNSIPCAPYATFGTRELSEHVALALKNRKATLLQHHGLIACEVNLEKALWLAHEVEVLAQLYLTTLAITDPVPVLSDEEIAVVLEKFKTYGLRIEE |  |  |  |  |  |  |  |  | 54.1 ± 3.6 | 1.5 | 5 | 92
